# T1: human full-length Sirt1 (fl-Sirt1) (Homo sapiens, UniProt Q96EB6)
# T1 construct: human full-length Sirt1 (fl-Sirt1) in pET-15b; made in house; host or cells: E. coli CodonPlus(DE3)
# T1 sequence (Q96EB6 1-747): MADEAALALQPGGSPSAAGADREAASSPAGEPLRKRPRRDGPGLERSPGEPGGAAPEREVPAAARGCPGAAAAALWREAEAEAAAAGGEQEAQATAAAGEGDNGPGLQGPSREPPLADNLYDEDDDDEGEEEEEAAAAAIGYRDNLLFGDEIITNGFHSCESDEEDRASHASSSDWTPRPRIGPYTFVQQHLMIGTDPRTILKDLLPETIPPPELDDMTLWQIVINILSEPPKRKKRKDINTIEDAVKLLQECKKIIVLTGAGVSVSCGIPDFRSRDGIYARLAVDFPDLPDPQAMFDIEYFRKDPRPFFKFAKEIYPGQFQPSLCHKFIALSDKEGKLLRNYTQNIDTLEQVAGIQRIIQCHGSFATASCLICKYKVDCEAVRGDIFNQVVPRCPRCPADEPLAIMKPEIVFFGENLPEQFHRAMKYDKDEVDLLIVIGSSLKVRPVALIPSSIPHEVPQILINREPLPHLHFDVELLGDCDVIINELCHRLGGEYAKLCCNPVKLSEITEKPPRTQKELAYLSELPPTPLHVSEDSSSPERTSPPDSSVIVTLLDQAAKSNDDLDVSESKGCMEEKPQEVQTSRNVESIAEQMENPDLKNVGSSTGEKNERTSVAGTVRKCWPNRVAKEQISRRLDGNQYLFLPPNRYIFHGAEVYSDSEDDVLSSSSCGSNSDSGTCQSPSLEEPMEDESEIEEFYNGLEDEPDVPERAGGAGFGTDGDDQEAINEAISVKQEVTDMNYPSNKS
# T2: human Sirt5 (Homo sapiens, UniProt Q9NXA8)
# T2 construct: Sirt5-(34-302) in pET-151/D-TOPO; made in house; host or cells: E. coli CodonPlus(DE3)
# T2 sequence (Q9NXA8 34-302): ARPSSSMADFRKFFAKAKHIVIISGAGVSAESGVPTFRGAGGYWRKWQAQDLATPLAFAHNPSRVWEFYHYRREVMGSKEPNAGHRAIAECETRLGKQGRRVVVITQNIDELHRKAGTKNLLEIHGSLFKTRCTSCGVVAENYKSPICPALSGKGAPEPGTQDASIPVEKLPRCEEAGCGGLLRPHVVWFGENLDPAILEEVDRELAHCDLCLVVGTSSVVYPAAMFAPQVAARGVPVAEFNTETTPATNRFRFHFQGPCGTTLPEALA
# B1: Tat-Cys^−: Recombinant 86-residue HIV1 Zaire 2 Tat with C22S, C25A, C27A, C30S, C31A, C34S, and C37A (protein)
# chain: MDPVDPNIEPWNHPGSQPKTASNRAHAKKSAYHSQVAFITKGLGISYGRKKRRQRRRPSQGGQTHQDPIPKQPSSQPRGDPTGPKE
# How the values were obtained:
# [1] = target: T1, human full-length Sirt1 (fl-Sirt1); assay: FdL deacetylation assay, fl-Sirt1; format: biochemical; conditions: Figure 1D,E; compared with Sirt2 and Sirt3
# From the text: A human mini-Sirt1 construct (aa 183-505-(GGGS)2-641-665), as described in [27], was generated in a modified pET-19b with a TEV cleavage site. This construct and human full-length Sirt1 (fl-Sirt1) in pET-15b, Sirt1-(183-664) and Sirt1-(214-664) in pET-15b, mini-Sirt1-∆SBD (aa 214-505-(GGGS)2-641-665) and mini-Sirt1-∆ESA (aa 183–505) in a modified pET-19b with TEV cleavage site, Sirt2-(43-356) in a modified pET-19b with a His6-Sumo tag, Sirt3-(93-399) in a modified pET-32a with Trx-His6 tag and TEV cleavage site, hSirt3-(118-399) in pVFT3S (Sungkyunkwan University, Seoul, Republic of Korea) with His6-Trx tag and TEV cleavage site, Sirt5-(34-302) in pET-151/D-TOPO, and Sirt6-(1-355) in pQE80L.1 were purified as described. Shortly, proteins were expressed at 20 °C (mini-Sirt1 constructs at 16 °C) in E. coli CodonPlus(DE3), cell lysates were cleared by centrifugation, and proteins were purified via affinity chromatography using a nickel NTA column. After digestion with thrombin or TEV protease, proteins were re-run over the nickel NTA column, pooled, and concentrated. The samples were, then, subjected either directly to size exclusion chromatography in 50 mM Tris/HCl, pH 8.0, 150 mM NaCl, 1 mM TCEP, or to an ion exchange chromatography followed by size exclusion chromatography. […]
# human Sirt5 = target: T2, human Sirt5; assay: Continuous coupled enzymatic assay, Sirt5; format: biochemical; conditions: 65 μM Tat-Cys^−, succinylated peptide at substrate Km, n = 3
# From the text: A human mini-Sirt1 construct (aa 183-505-(GGGS)2-641-665), as described in [27], was generated in a modified pET-19b with a TEV cleavage site. This construct and human full-length Sirt1 (fl-Sirt1) in pET-15b, Sirt1-(183-664) and Sirt1-(214-664) in pET-15b, mini-Sirt1-∆SBD (aa 214-505-(GGGS)2-641-665) and mini-Sirt1-∆ESA (aa 183–505) in a modified pET-19b with TEV cleavage site, Sirt2-(43-356) in a modified pET-19b with a His6-Sumo tag, Sirt3-(93-399) in a modified pET-32a with Trx-His6 tag and TEV cleavage site, hSirt3-(118-399) in pVFT3S (Sungkyunkwan University, Seoul, Republic of Korea) with His6-Trx tag and TEV cleavage site, Sirt5-(34-302) in pET-151/D-TOPO, and Sirt6-(1-355) in pQE80L.1 were purified as described. […]
# Continuous coupled enzymatic sirtuin activity assays were conducted as described. […] Reactions were monitored for 1 h at room temperature by absorption spectroscopy at 340 nm in a UV/vis plate reader (BioTek). The slope for the linear range (typically 5–25 min) was evaluated after background correction with measurements without NAD^+. Additional control reactions were run by either omitting enzyme or omitting peptide substrate to ensure that the signal measured reflects the NAD+-dependent deacetylation activity of the sirtuin.
molecule,measurement,setting,value
B1,"relative isoform inhibition, Sirt1 vs other isoforms",[1],slightly more potent inhibition of this isoform
same,"inhibitory effect on Sirt5, continuous assay",human Sirt5,no statistically significant effect was observed
